In publication PMC4412286:

Biological target: phosphoinositol 3-kinase (PI3-kinase), p85 subunit (human (endogenous in AGS)) (UniProt P27986)
Chain of UniProt P27986 (P27986 whole entry): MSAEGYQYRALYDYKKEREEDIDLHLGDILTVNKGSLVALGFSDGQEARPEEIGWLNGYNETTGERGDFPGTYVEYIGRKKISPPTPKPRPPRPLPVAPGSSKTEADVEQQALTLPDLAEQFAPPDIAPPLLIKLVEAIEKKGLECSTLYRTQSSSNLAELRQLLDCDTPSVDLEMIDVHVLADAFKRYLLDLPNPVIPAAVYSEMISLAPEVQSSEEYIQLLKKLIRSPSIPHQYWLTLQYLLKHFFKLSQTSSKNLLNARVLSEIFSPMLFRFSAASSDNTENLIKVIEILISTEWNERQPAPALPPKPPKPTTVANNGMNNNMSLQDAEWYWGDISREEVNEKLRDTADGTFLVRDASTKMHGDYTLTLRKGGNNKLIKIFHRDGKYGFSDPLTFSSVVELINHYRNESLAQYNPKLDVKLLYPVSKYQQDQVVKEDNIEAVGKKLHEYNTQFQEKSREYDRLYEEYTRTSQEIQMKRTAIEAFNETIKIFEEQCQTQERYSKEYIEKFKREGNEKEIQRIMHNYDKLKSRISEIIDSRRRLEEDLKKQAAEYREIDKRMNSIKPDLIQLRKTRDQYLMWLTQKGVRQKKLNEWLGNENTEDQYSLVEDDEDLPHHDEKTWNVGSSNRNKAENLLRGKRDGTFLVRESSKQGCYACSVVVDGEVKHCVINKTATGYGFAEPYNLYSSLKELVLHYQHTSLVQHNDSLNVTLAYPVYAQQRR

Substance | phosphorylation of AKT at threonine 308 in AGS cells after 24 h co-culture with the EPIYA isogenic strain (immunoblot, fold) [fold] | phosphorylation of AKT at threonine 308 in AGS cells after 24 h co-culture with the EPIYT isogenic strain (immunoblot, fold) [fold]
CagA of H. pylori strain 147C with EPIYA B-TPM, HA fusion (natural protein) | 1.7 | 
CagA of H. pylori strain 147C with EPIYT B-TPM (wild-type 147C sequence), HA fusion (natural protein) |  | 2.4
